A word on the Kd: it is a measure of binding affinity in units of concentration.

Experiment [1] addresses TSHR-LHR-6 chimeric receptor. The experiment can be described thus: radioligand binding; membrane preparations of TSHR wild type, mutants and constructs, 125I-hTSH with increasing unlabelled hTSH; with NMIgG (control) (Table 5).
The target of experiment [2] is TSHR-LHR-6 chimeric receptor. The experiment can be described thus: radioligand binding; membrane preparations of TSHR wild type, mutants and constructs, 125I-hTSH with increasing unlabelled hTSH; with MAb 311.87 (134 nM) (Table 5).

Sequence of human thyroid stimulating hormone (hTSH) (P01215 25-116): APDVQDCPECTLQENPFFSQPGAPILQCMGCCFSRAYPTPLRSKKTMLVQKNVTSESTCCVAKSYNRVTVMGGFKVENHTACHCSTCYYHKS
Sequence of human thyroid stimulating hormone (hTSH) (P01222 21-132): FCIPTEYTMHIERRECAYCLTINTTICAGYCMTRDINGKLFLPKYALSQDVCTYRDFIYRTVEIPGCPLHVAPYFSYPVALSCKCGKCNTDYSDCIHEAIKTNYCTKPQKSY

“human thyroid stimulating hormone (hTSH) (from UniProt P01215 25-116; P01222 21-132) (ligand)” came in with a Kd in experiment [1] of 0.27 nM. In experiment [2], this substance showed a Kd with MAb 311.87 of 0.39 nM.

The record behind these values is publication PMC3391290.
